By Kd is commonly meant a measure of binding affinity in units of concentration. A lower Kd goes with tighter binding.

The results in this text go back to patent US20250122285A1 (ANWITA BIOSCIENCES, published 2025).

The experiment has as its target T1, CD122/CD132 heterodimer (human, UniProt P14784 27-239; P31785 23-262).
T1 construct: Bought from ACROBIO as 'AVT-TAG CD122/CD132 heterodimer'; also called AVT-TAG CD122/CD132 heterodimer; IL-2Rβ/γ complex
T1 sequence 1: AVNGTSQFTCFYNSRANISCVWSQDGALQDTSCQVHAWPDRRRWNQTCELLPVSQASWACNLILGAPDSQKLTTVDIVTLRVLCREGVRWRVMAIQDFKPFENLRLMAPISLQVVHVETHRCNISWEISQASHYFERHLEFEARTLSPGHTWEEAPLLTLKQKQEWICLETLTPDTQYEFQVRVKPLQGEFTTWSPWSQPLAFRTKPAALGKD
T1 sequence 2: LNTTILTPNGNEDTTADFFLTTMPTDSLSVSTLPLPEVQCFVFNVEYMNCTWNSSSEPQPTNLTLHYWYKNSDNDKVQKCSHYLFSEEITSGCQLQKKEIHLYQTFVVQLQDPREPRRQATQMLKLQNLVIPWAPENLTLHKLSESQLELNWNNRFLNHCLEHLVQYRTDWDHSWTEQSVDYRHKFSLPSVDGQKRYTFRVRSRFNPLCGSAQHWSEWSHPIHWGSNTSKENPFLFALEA
The experiment can be described thus: BLI (OCTET RED96), receptor on biosensor, IL-2 in solution at 10-2,000 nM, 24 C. On the procedure:
OCTET® RED96 was used to characterize the interactions of wild-type hL-2 and hhL-2 muteins with CD25, CD122, or CD122/CD132 heterodimer. AVT-TAG CD122/CD132 heterodimer was purchased from ACROBIO. The protein samples were diluted in the OCTET® kinetic buffer. […] The biosensor was then dipped into a solution containing a wild-type hL-2 and IL-2 muteins at 10 to 2,000 nM at 24° C. The association and dissociation sensorgraph was fitted by global or local fitting using the OCTET® Data Analysis HT software.

B1: IL-2-IL-15 Chimera 65 (T3A, I92A, C125S, Q126E) (ligand)
chain: APASSSTKKTQLQLEHLLLDLQMILNGIQSMEIDATTFKFYMPKKATELKHLQCLEEELKPLEEVLNLAQSKNFHLRPRDLISNINVAVLELKGSETTFMCEYADETATIVEFLNRWITFSESIISTLT
B1: the Kd worked out at 242 nM. In other words, the sub-micromolar range.
